Source: patent US20070286858A1 (Pfizer, published 2007)
Changes are numbered by the printed parent chain. Names and notes keep the numbering of the source. Blank lines part the entries; values can stand above or below the binder they belong to.

Columns and labels:
[1] = molecular target: T1, soluble human streptavidin-tagged RAGE (human, UniProt Q15109 23-344); test: BIACORE capture, hRAGE-SA over captured antibody, 1:1 Langmuir global fit, FC4
T1 construct: also called hRAGE-SA; human RAGE-strep
Procedure: (§1) The assays were performed by coating anti-human Fc antibodies onto a CM5 BIA chip with 5000 RU (pH 5.0, 7 min.) in flow cells 1-4. Each antibody was captured by flowing at 2.0 μg/ml over the anti-Fc antibodies in flow cells 2-4 (flow cell 1 was used as a reference).

[2] = molecular target: T1, soluble human streptavidin-tagged RAGE; test: BIACORE capture, hRAGE-SA over captured antibody, 1:1 Langmuir global fit, row Average
Procedure: as §1

[3] = molecular target: T2, murine RAGE-strep tag fusion protein (mouse, UniProt Q62151 23-343); test: BIACORE capture, SA-Mu RAGE over captured antibody, 1:1 Langmuir global fit, FC4
T2 construct: also called mRAGE-strep; mRAGE-SA
T2 chain: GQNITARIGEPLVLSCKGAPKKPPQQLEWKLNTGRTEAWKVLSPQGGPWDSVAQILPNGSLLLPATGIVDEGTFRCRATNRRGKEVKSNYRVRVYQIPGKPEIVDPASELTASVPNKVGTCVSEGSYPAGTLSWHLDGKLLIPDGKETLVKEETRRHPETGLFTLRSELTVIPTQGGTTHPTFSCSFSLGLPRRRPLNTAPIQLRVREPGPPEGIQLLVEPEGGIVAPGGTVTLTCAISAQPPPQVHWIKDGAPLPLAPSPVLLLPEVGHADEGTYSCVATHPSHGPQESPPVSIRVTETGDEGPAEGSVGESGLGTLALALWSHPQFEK
Procedure: as §1

[4] = molecular target: T2, murine RAGE-strep tag fusion protein; test: BIACORE capture, SA-Mu RAGE over captured antibody, 1:1 Langmuir global fit, FC2
Procedure: as §1

[5] = molecular target: T1, soluble human streptavidin-tagged RAGE; test: BIACORE capture, hRAGE-SA over captured antibody, steady state affinity, FC3
Procedure: as §1

[6] = molecular target: T1, soluble human streptavidin-tagged RAGE; test: BIACORE capture, hRAGE-SA over captured antibody, steady state affinity, FC2 (cell circled on the sheet)
Procedure: as §1

[7] = molecular target: T2, murine RAGE-strep tag fusion protein; test: BIACORE capture, SA-Mu RAGE over captured antibody, 1:1 Langmuir global fit, FC3
Procedure: as §1

[8] = molecular target: T1, soluble human streptavidin-tagged RAGE; test: BIACORE capture, hRAGE-SA over captured antibody, 1:1 Langmuir global fit, FC2
Procedure: as §1

[9] = molecular target: T1, soluble human streptavidin-tagged RAGE; test: BIACORE capture, hRAGE-SA over captured antibody, steady state affinity, row Average
Procedure: as §1

[10] = molecular target: T2, murine RAGE-strep tag fusion protein; test: BIACORE capture, SA-Mu RAGE over captured antibody, 1:1 Langmuir global fit, row Average
Procedure: as §1

[11] = molecular target: T1, soluble human streptavidin-tagged RAGE; test: BIACORE capture, hRAGE-SA over captured antibody, steady state affinity, FC4
Procedure: as §1

[12] = molecular target: T1, soluble human streptavidin-tagged RAGE; test: BIACORE capture, hRAGE-SA over captured antibody, 1:1 Langmuir global fit, FC3
Procedure: as §1

[13] = molecular target: T3, human RAGE-Fc fusion protein (human, UniProt Q15109 23-344); test: competition ELISA on coated hRAGE-Fc; competitor 12.5 ng/ml biotinylated rat XT-M4; lower end of the printed range 0.3-0.4; second listing of this pair (r31, beside r26: 0.95)
T3 construct: also called hRAGE-Fc; huRAGE-Fc; not shown: Fc domain of human IgG
Procedure: (§2) ELISA plates were coated overnight with 1 ug/ml human RAGE-Fc. […] Briefly, plates were coated overnight with 1 ug/ml human RAGE-Fc.

[14] = molecular target: T3, human RAGE-Fc fusion protein; test: competition ELISA on coated hRAGE-Fc; competitor 12.5 ng/ml biotinylated rat XT-M4; upper end of the printed range 0.3-0.4; second listing of this pair (r31, beside r26: 0.95)
Procedure: as §2

[15] = molecular target: T3, human RAGE-Fc fusion protein; test: competition ELISA on coated hRAGE-Fc; competitor 12.5 ng/ml biotinylated rat XT-M4
Procedure: as §2

[16] = molecular target: T3, human RAGE-Fc fusion protein; test: ELISA, coated hRAGE-Fc
Procedure: Antibodies were purified from hybridoma supernatants using standard procedures. Purified antibodies were evaluated for binding to soluble forms of RAGE with the use of ELISA. […] After washing and blocking with PBS containing 1% BSA and 0.05% Tween-20, 100 ul of sample (samples were in several forms: diluted immune serum, hybridoma supernatants, or purified antibodies, as indicated) was added and incubated for 1 hour at room temperature. The plates were washed with PBS, pH 7.2 and bound anti-RAGE antibodies were detected with the use of peroxidase-conjugated goat, anti-mouse IgG (H+L) (IgG) (Pierce, Rockford, Ill.) followed by incubation with the substrate TMB (BioFX Laboratories Owings Mills, Md. Laboratories). Absorbance values were determined at 450 nm in a spectrophotometer. The concentrations of monoclonal antibodies were determined with the use of peroxidase-labeled goat, anti-mouse IgG (Fcγ) (Pierce Rockford, Ill.) and a standard curve was generated by a purified, isotype-matched mouse IgG.

murine RAGE, full length = molecular target: T4, murine RAGE, full length (mouse, UniProt Q62151 23-402); test: FACS, 293 cells infected with murine RAGE adenovirus
T4 construct: Expressed on 293 cells; also called mRAGE; 293-murine RAGE
T4 chain: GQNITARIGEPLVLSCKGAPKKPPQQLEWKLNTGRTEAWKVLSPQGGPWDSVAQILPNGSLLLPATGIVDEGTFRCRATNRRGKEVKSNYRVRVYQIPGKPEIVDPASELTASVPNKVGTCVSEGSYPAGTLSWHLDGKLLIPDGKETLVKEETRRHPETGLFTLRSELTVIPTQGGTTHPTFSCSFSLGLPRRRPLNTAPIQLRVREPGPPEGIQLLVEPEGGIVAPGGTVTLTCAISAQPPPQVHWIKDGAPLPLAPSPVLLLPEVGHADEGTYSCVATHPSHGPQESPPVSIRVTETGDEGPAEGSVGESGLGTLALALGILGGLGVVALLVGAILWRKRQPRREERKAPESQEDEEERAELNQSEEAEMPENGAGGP
Procedure: Human 293 cells were infected with the human and murine RAGE adenovirus. Infected cells were suspended in PBS containing 1% BSA at a density of 4×10⁴ cells/ml. Cells were incubated with 100 ul of sample (diluted immune sera, hybridoma supernatants or purified antibodies) for 30 min at 4° C. After washing, cells were incubated with PE-labeled goat, anti-mouse, IgG, F(ab′)₂ (DAKO Corporation GlostrupDenmark) for 30 min at 4° C. in the dark. Cell-associated fluorescence signals were measured by a FACScan flow cytofluorometer (Becton Dickinson) using 5000 cells per treatment. Propidium iodide was used to identify dead cells, which were excluded from the analysis.

human RAGE, full length = molecular target: T5, human RAGE, full length (human, UniProt Q15109 23-404); test: IHC, CHO cells expressing hRAGE, 1 µg/ml
T5 construct: Expressed on 293 or CHO cells, or endogenous in human lung sections; also called hRAGE; cell-surface hRAGE
Procedure: (§3) Immunohistochemistry for RAGE lung tissues isolated from baboon, cynomolgus monkey, rabbit or Chinese Hamster Ovary cells over-expressing human RAGE or control CHO cells were performed using standard techniques. RAGE antibodies and rat IgG2b isotype control or mouse isotype control were used at […]. […] Following detection with HRP and Alexa Fluor 594, Alexa Fluor 488 or anti-biotin conjugated with FITC, sections were also stained with 4′-6-Diamidino-2-phenylindole (DAPI).
(§4) CHO cells stable transfected with an expression vector that expresses DNA encoding hRAGE is used as a positive control.

cynomolgus monkey RAGE = molecular target: T6, cynomolgus monkey RAGE (cynomolgus monkey (Macaca fascicularis), UniProt Q15109 23-404 (human entry)); test: IHC, normal monkey lung, 5 µg/ml
T6 construct: On transfected 293 cells or endogenous in monkey lung sections; also called 293-cyno monkey RAGE; RAGE in monkey lung
T6 chain: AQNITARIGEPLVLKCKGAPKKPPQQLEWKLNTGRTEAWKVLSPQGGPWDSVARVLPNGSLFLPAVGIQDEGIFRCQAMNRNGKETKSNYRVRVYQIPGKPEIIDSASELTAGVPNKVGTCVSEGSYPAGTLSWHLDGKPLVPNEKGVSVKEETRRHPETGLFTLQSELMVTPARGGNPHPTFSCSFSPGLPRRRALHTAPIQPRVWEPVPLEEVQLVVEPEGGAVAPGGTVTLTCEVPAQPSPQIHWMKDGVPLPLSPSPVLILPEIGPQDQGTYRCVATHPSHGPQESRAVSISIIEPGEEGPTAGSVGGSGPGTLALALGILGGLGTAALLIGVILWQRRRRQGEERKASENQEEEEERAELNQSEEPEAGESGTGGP
Procedure: as §3, §4

baboon RAGE = molecular target: T7, baboon RAGE (baboon (Papio cyanocephalus), UniProt Q15109 23-404 (human entry)); test: IHC, septic baboon lung, 1 µg/ml
T7 construct: On transfected 293 cells or endogenous in baboon lung sections; also called 293-baboon RAGE; RAGE in baboon lung
T7 chain: T6 chain with G347R
Procedure: as §3, §4

[17] = molecular target: T2, murine RAGE-strep tag fusion protein; test: ELISA, mRAGE-strep
[18] = molecular target: T3, human RAGE-Fc fusion protein; test: antibody competition ELISA on hRAGE-Fc; competitor biotinylated XT-M4; sheet note: N52D (labeled N71D) is glycosylation mutant in CDR2 of HC
Procedure: as §2

B1: XT-M4-V10 (antibody, V domains shown)
VH: EVQLVESGGGLVQPGGSLRLSCAASGFTFNNYWMTWVRQAPGKGLEWVASIDNSGDNTYYPDSVKDRFTISRDNAKNSLYLQMNSLRAEDTAVYYCARGGDITTGFDYWGQGTLVTVSS
VL: DIQMTQSPSSLSASVGDRVTITCRASQDVGIYVNWFQQKPGKAPKRLIYRATNLADGVPSRFSGSGSGTDFTLTISSLQPEDFATYYCLEFDEHPLTFGGGTKVEIK
Kd [1]: 20.3 nM
koff [1]: 0.0704 s⁻¹
kon [1]: 3.47e+06 M⁻¹ s⁻¹
Kd [2]: 23.4 nM
koff [2]: 0.0457 s⁻¹
kon [2]: 2.3e+06 M⁻¹ s⁻¹
Kd [3]: 3 nM
koff [3]: 0.0078 s⁻¹
kon [3]: 2.6e+06 M⁻¹ s⁻¹
Kd [4]: 3 nM
koff [4]: 0.0078 s⁻¹
kon [4]: 2.6e+06 M⁻¹ s⁻¹
Kd [5]: 24 nM
Kd [6]: 25 nM
Kd [7]: 2.9 nM
koff [7]: 0.0076 s⁻¹
kon [7]: 2.6e+06 M⁻¹ s⁻¹
Kd [8]: 31.8 nM
koff [8]: 0.00972 s⁻¹
kon [8]: 306000 M⁻¹ s⁻¹
Kd [9]: 25 nM
Kd [10]: 3 nM
koff [10]: 0.0077 s⁻¹
kon [10]: 2.6e+06 M⁻¹ s⁻¹
Kd [11]: 26 nM
Kd [12]: 18.2 nM
koff [12]: 0.0569 s⁻¹
kon [12]: 3.13e+06 M⁻¹ s⁻¹

B4: XT-M4 with N52D in the heavy chain variable region (antibody, name in Kabat numbering, V domains shown)
VH: EVQLVESGGGLVQPGRSLKLSCVVSGFTFNNYWMTWIRQTPGKGLEWVASIDNSGDNTYYPDSVKDRFTISRDNAKSTLYLQMNSLRSEDTATYYCTRGGDITTGFDYWGQGVMVTVSS
VL: DIQMTQSPSSMSVSLGDTITITCRASQDVGIYVNWFQQKPGKSPRRMIYRATNLADGVPSRFSGSRSGSIYSLTISSLESEDVADYHCLEFDEHPLTFGSGTKVEIK
notes: Removes the glycosylation site in CDR2; also called XT-M4 N52D
IC50 (read off the curve) [18]: ~0.1 µg/mL

The remaining lines, values ahead:

IC50 [13]: 0.3 to 0.4 µg/mL
IC50 [14]: 0.3 to 0.4 µg/mL
IC50 [15]: 0.95 µg/mL
B2: humanized XT-M4 hVH-V2.0 / hVL-V2.10 (antibody, human IgG1, V domains shown)
VH: B1 VH
VL: B1 VL

binding result [16]: binds
binding result (murine RAGE, full length): binds
binding result (human RAGE, full length): binds
binding result (cynomolgus monkey RAGE): binds
binding result (baboon RAGE): binds
binding result [17]: binds
B3: XT-H1 (antibody, mouse IgG1, V domains shown)
VH: QVQLKESGPGLVAPSQSLSITCTISGFSITSYGVHWVRQPPGKGLEWLVVIWSDGRTTYNSTLKSRLSISKDNSKSQVFLKMNSLQTDDTAMYYCVRHGGYFPYAMDYWGQGTSVTVSS
VL: DIQMTQSPSSLSTSLGGKVTITCKASQDINKFIAWYQHTPGKGPRLFIYYTSTLQPGIPSRFSGNGSGRDYSFSISNLEPEDIATYYCLQYDNMYTFGGGTKLEIK
notes: also called 1hRAGEP3/6; murine anti-huRAGE monoclonal antibody XT-H1
